Data reported in doi:10.1101/2023.12.22.573000.

Biological target: T1, RIG-I (recombinant) (human? (GeneID 23586), UniProt O95786 1-925)
T1 sequence: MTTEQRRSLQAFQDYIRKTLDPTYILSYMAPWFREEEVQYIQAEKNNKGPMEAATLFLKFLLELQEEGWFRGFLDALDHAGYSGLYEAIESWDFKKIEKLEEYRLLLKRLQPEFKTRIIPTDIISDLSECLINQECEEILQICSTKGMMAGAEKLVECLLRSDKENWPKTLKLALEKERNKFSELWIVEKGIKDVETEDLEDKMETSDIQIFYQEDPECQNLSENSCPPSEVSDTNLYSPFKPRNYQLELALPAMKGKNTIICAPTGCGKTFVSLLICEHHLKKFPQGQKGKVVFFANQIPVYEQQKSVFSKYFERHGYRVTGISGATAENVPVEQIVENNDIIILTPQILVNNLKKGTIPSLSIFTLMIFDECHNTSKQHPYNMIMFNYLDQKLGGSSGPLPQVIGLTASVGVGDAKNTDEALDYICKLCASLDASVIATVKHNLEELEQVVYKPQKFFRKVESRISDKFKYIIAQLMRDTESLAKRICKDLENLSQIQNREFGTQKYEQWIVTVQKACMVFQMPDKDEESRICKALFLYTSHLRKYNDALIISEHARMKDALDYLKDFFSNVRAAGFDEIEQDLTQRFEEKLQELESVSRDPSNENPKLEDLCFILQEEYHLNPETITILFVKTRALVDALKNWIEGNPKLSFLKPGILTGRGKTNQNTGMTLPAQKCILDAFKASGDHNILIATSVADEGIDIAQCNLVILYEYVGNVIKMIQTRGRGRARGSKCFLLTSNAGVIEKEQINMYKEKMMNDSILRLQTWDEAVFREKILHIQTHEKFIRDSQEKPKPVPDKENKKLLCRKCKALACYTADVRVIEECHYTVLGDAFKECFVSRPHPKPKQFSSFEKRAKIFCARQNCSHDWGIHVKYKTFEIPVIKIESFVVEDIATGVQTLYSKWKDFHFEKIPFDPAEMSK
Test: EMSA

B1: 5'-pppG synthetic 24 bp dsRNA (dsRNA)
RNA 1: GGCAAAAGCAGGGUGACAAAGACA
RNA 2: UGUCUUUGUCACCCUGCUUUUGCC
modifications: 5'-ppp on sense strand only
B1 showed a Kd of 0.94 nM.
